Test: soluble on expression in E. coli; label from the status in PepcDB or PDB records

Soluble on expression in E. coli, soluble:
MKKEHQKTLTFEIITPVVMAGTYKDEPELRIPSIKGMLRWWFRFFYASHNQSIDKLREHENEIFGSTEKACQFYMHLKYSQKLTDAYLAMNKRYGRYNNIKRKALEKNDTFRIDFIYSPFFTYKKELNTTLQLLSFLGGIGARWRRGFGSIQLKNGEDYKSFDKLKEKIEKVLKGKGEYHHDGFININNVDIYLVKPKRDNFWIDSLGAMNNLRKKVYKEFKSETNIKAIACKPKGGSRAVSPLIIQIKKFSEGKFYGILIVYNEWDKYEEFKNFINNNSELSFEQLLKSKPRKI
MSLKNIKSNLGDYATLVFDCDGVLLDSNKVKTQAFYEAALPYGEMAAQALADHHVANGGISRYKKFSYFLEHIVAQHAEGPSLEHLLDRYAENVSSGLLSCDIASGIRELRAKTPNTRWLIVSGGDQTELREVFAQRKLAEIFDGGIFGSPDAKEEIIARELRSSNIAPPALFIGDSKYDFKAASESNLDFLFLSDWSEVKNWQQWCNENNIYALGNISSLLETCTHPEEGHHHHHH
MTTFTHINSQGEANMVDVSAKAETVREARAEAIVTMSKETLSMIVEGKHHKGDVFATARIAGIQAAKRTWELIPLCHPLLLSKVEVNLEPLLETNQVRIQSLCKLTGKTGVEMEALTAASVAALTIYDMCKAVQKDIVIEHVRLLEKSGGKSGHFIAEEK
MAHHHHHHMQTLDINNSFAVPFDEDPQDAGVWFFDTNYAQEMFAMHKRVLPKVKVVGWYSSGPTIQPNDMLLHLLVADRFCLNPVYCVVNTDPNNKGVPVRAYTTVQGREGTRSLEFRNIPTHLGAEEAEEIGIEHLLRDLTDSTITTLSTQVQERELSLVHLCKVLQQIEEYLKDVGNAVMPISEDVLEVLQELISLQPEIYARRSSTEMIRHTNDEAIATFLAAIARCIGALHGVIMNRRKLARELQEIKDRRARAAETRLENEKMKIEEAAKEKDTNQA
MGSSHHHHHHGSLPPREDAARVARFVTHVSDWGALATISTLEAVRGRPFADVLSLSDGPPGAGSGVPYFYLSPLQLSVSNLQENPYATLTMTLAQTNFCKKHGFDPQSPLCVHIMLSGTVTKVNETEMDIAKHSLFIRHPEMKTWPSSHNWFFAKLNITNIWVLDYFGGPKIVTPEEYYNVTVQ

Soluble on expression in E. coli, not soluble:
MGSDKIHHHHHHMNDRFVCSLIEKSDLSNFVKKHSKNVFYDIAKAEAAVHQQTIDTIHFHEVGAIDSIVDIVGFFILWEQLEIEQVYSTPITDGSGTITIAHGVMPIPVPAVMELRKETNLIIQQDFEIKTELVTPTGLAIFKELSPLFVAPEQRLIEKIGYGFGKRETGKFNALRGSIFTETHSKKKRTEHHDQVLKIETNIDNQTPEQLGYVMDLLLEHGALDVFFTPIHMKKNRSAILLTVLTTTEEKEYFTELLFKHTSTIGMRFQTMERSVMDRSFKILETPFGKVHIKKNHYHGLLKESIEYQDCERIAKQYNFTIEEVYRLVQTLNNKTID
YTVEPVQDGERSVTLRRAGGTPLVAAMYHLPAAGSPDFVGLDLAATILADTPSGRLYHALVPTKLASGVFGFTMDQLDPGLAMFGAQLQPGMDQDKALQTLTATLESLSSKPFSQEELERARSKWLTAWQQTYADPEKVGVALSEAIASGDWRLFFLQRDRVRDAKLDDVQRAAVAYLVRSNRTEGRYIPTEKPQRAPLAQR
MGSDKIHHHHHHMTIDLTPYLPSQGPKYLAIARALAEAIRQGELTPGTRLPPHRCLADALAVSVQTVSRAYAQAEKMGLVQARVGSGTWINTLDDSQEAEYLRSADLPTEGAPVDLSIAHPVCPPGHHLRFRETLREVADSAHPDAIDACRPIAGLAHQRERASHWLQETLGVPGTPDDRVLCNGAAHGVMLAIATLVQHGDVVLTEALTDHGLIALSRTLGLQLRGVAIDEQGVIPEALDAACRRYHPRAVCLTPTQHNPTGATMDADRRDAIAEVLARHGTWLIEDDTHALLEPPGLTPLTARLPRQSFHVTSLTKATVPGLRAGYLSVPRGQLHHTLPRLRATSWMATPLIFEIADRWLADGSVEALAEEQRQLLAERQQLTRSRLQGHVMASRPTGLHVWLALPRAWRAEELQQQALREGLAIATAQPFMVGQGAPPQRVRLSLGAENDLERFDQGLTILARLLGEAPPPMLQNV
MILDKKSYDLLSYLLKLETPETVMAISHALNQSRRKVYYQLDKINQALPKGVDQIISYPRLGILLTADQKAACRLLLEEVTDYNYVMKSDERRRLSSIYIAVSTERVTIDKLMQINDVSRNTILNDLTELREELEDKQYKIQLHATKARGYYFGCHPMALIQYLYKLLVDVYQGGNTSFIDIFNRKLSEIQGLSVYFSKDILTYFHEYLFLSQASLGKTINTQDSQFMLQILPFMLLSYRNMRLDSETKSALKQEFHLIWKRKEYHIAQDLARELYHNFKLHLDDIEVSMVAMLMLSFRKDQDHHVESQDYDDMRATISHFIDQLESRYQLHFTHKQDLLKRLTTHCKALVYRKAYGIFLVNPLTDHVKEKYEELFAMTQSCATILEQDWTISLTDDDIAYLTIHLGGELRHNNTEQEKTKLVIVSDDGIGIQKLLFKQCQRYLANGQIEAVFTTEQYQSVYDLLAVDMIVATTDTLKTKIPMLIVNPILSDDDIIKLIRFSKQGRLSEHSRFSTELTKAIEAVVKDESDRYALVSKIEKLIHRELL
MGSDKIHHHHHHMKITNFEQTGLCEIEGILSIENTENIEVSELREILKCANVSFVLEGINRLQSTLICELKASYVQQSQRYVTLKENSFDLPDLRHEDELKAKELLRKAFELYEEMSRLKEGQFKGRPKAENYLYGIPIEDARYILPLACKTNISMAMNGEKLIDFFYLLNDRHYSEIFSDLKKLVLSKLPEKLSLFLSKLKSNYNRKLIENFYKSAFDKISECDNIVLLNSFEDLDLKVGLGAITSTHDKTPSEVMELWGDNATEKAKGVSERVLGYGHESIAEQARTTFGMMCSMVTYHQQIRHRLSENHREALFNIIQDEKREVVVPSTVKESEFYNRFVELTHEFKKFRKYVLKEYGEEKSLNFLLNCDRIKLVISTNARIDCQMLADRICFNAQWEIRELSTKKLEKLRKLSQVLYVKALPSCVFGKCKEGKFTCGKQMIMKNKFA
MGQLPPRARAFFAAQRPLRVLMPGCGSAADLPPLLAMGHDVLAVDFSEAAIELAARQWPEAAGRLLLADFFQLQMPAFDCLFERAFLCALPVGMRSQYAERVAALIAPGGALAGVFFVADTERGPPFGMQAEALRELLSPWFELEEDLALDESVAVFRNRERWMVWRRRGLEHHHHHH
MSDPKPTRSQGDLAEMLEMLLDKGVVINADIAVSVGDTELLGIQLRAAVASFETAAQYGLEFPTGTDMKRVETAAGVSSDASDANSETQPETEPARETTDEHSAVSSPSSREE
MESIGLVIVSHSKHIAEGVVELISKVAKDVPITYVRGTEGGGIGTSFEQVDRVVSENPADTLLAFFDLGSAKMNLKMVTDFSDKSIIINRVPIVEGAYNAAALLQAGAELSVIQTQLAELEINK
MGQRSTPQQIPVVVLAGFLGSGKTTLLNHLLHRSGGSRIGAVVNDFGSIEIDAMAVAGALGDSTVSLGNGCLCCAVDASELDGYLARLARPEAGIDVIVIEASGLAEPQELVRMLLASEQPGIVYGGLVEVVDAAEFDDTRARHPEIDRHLALADLVVVNKTDRATDAERVLGLVHSLVGGAAVVPATYGRIDPEFLYDCRPGEERVGQLSFDDLHDHSEGGAHADHLHAAYDTLSFVSGLPLDPRRLMRFLDSRPKGLYRIKGYVDFGPYDTRNRYAVHAVGRFLRFYPEPWTPAGAAGGSGAPETGRTQLVLIGSGIDAAALGEELDACRRDADAPPADEHGMWGVLRYVADGEEPPDSPLEHHHHHH
MTAPFNALLIANRGEIAIRIARACADLGIRSVAVFAEDDAASLHVRKADVALPLAGRGVAAYLDMDRLVALALEQGCEAIHPGYGFLAENGEFARRCQRAGIHFVGPQAEVLDLFGDKAAARALAERLEVPLVAGINRAVSVEEAEAFLEGLGDGAAVMLKALAGGGGRGMRAVEEVAQLADAYRRCRAEAQAAFGRDELYVEQRVARARHIEVQVLGDGSGAVSHLWERDCSLQRRQQKLLEIAPSPDLPEATREALIDCALRMAGAVRYRGIGTFEFLVDDERPGRFYFMEANPRIQVEHTVTEEVTGVDLLHAQLRLAAGMELAALGLERPPAIGGCAVQLRINLETLAADGSARPAVGTIGAYEPPSGPGLRVDGYGYAGYRVSPSYDSLLAKLVVRGADYPAALRRAYRALCEFRLEGVASNLDLLRNLLLHPAVQANRVDTRFVESHLETLLAPIPASHPRLRAECPLAEDAAPARVEAPLGSLPLSAPSSGVLVALEVADGERVRAGQRVAILEAMKMEFEVKAPGGGIVRRLAASLGEPLEEGATLLFLEPTEDDDEQAPTEQALDLAHIRADLAEVLERQAALGDERRPQALARRRKTGQRTARENVLDLLDEGSFSEYGGFALAAQRRRRSAEELLELSPADGLVAGTGTVGAASFGVQAARCLVLAYDYTVFAGTQGVMNHKKTDRLLGLAEQWRLPLVLFAEGGGGRPGDTDFVGVAGLDCHTFVGMARLSGLVPLVGVVSGRCFAGNAALLGCCDVIIATRDATIGMAGPAMIEGGGLGRFAAEEVGPTGVQGPNGVIDVLVEDEAEAVAVARRYLGYFQGPLPDWSCADQRELRHLVPENRLRAYDIRQAIEVLADRGSVLELRRQFAPGLVTALLRIEGRAFGLIANNPGHLGGAIDAAAGDKAARFMQLCDAFDIPIVSLCDTPGFMVGPEAEKQATVRHVSRMFVSAASLTVPFFTVVLRKGYGLGAQAMAAGSFHSPLFTVAWPSGEFGAMGLEGAVRLGFAKELAAEEDPQRREALFRGMVDKAYRNGKALNMASYLEIDAVIDPAETRAWLLRGLAVAGEPAPRAGRKRPF
MKGRVRIRGIYATALTSIFSSLSYEIVQQSVEISERFMQEINNLSADITIKDFEDDRGKIIVMGNGIIEDDLRNVFKYSFHWRSPVKLYSVIEIDESCTYANFKVEPCLREGIVIKPPYDGKIILSETKAVSKYAIVWRGKGITTFSEHIVDEEEKMRLLTLSLPLNRKGYNVKWRSNAKYVALNELKEDLERLILRYENREFRDQGEDFYLITLSLPDKLYLDEVRKNVVDTVKYHHMLKLSYNREVDSLEKDKKGSLGKLLEGLISDFLKIEHIKADGKVIYLRGGKVIEKEVNDNGYRIVLRREFEGNGILDGIGKKIEEGDYDIVEYNSDKWYQIHKYYSGIDNSLKGVYINISTPPELLRGKIRYLDLEIDIAIRDSEIALLDEDELNKKSIYMPSSLVNKAKEVVNYLINRIQQNKLS
MKKIGIIGAGGIARAHATALSTIKNAELVGVYDINQQNAESFVKTFGGKSFENVDELIDASEGLIVASPNFCHKEHALQALGKHKHVLCEKPMAISLEEASIMKDTAERLSVRASMGFNYRYLSYVNILKSLIINNELGNILSIKVHFKKNSALRRKKFTWRDDANSKKTSGSLGDLGIHLIDMVWYLFESDFITESVRAKMNTNVKTKEDKQVLVDDYAEIYGQLRNKVFVNIITSKCSVPEDCGFSIEVVGHKKEFKYHTGNPHVYKLIDGLNVVDCPVPQSLLNDPPNEFYGWADSFRSELINWIASTQNDWVEIPSFSDGFRSQEVLEMFFEKDSNSQPMSVSAVNLEHHHHHH

Reference: the DeepSol protein solubility set
